Laboratory results as given in PMC11289419, “Modular RNA motifs for orthogonal phase separated compartments”.

What was measured:
P22 N peptide = target: T1, P22 N peptide (bacteriophage P22, UniProt P04891 14-30); experiment: fluorescence microscopy recruitment to RNA condensate; 25% aptamer strand; Multi-stranded: 40 mM HEPES, 100 mM KCl, 500 mM NaCl, 5 uM strands (1.25 uM aptamer strand), 70 C melt, 12 h hold (50 C), imaged after 20 C; co-transcriptional: T7 transcription buffer with 10 mM NaCl, 30 mM MgCl2, 2 mM spermidine, 37 C; pH not given; details: tags: 6-FAM (stated for single-stranded nanostar experiments); four-arm nanostar of 4 strands, 5' palindromic sticky end GAGCUC on S2-S4; boxB hairpin 5' of the S1 sticky end
T1 chain: NAKTRRHERRRKLAIER

[1] = target: streptavidin (fluorescently labeled) (UniProt P22629 25-183); experiment: as above; details: protein: commercial; tags: fluorescent label; chain copies: 4; four-arm nanostar of 4 strands, 5' palindromic sticky end GCGC on S2-S4; aptamer 5' of the S1 sticky end
streptavidin (fluorescently labeled), sequence (P22629 25-183): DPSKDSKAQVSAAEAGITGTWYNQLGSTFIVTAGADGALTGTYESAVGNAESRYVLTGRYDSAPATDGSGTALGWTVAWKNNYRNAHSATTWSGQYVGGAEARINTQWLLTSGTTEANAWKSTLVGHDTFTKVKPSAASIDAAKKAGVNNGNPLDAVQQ

B1: 4m5 nanostar with P22 boxB (structured_RNA)
RNA 1: GGUGCGCUGACAAAGCGCGCCGAGCUCAGAGUCUCUGGUCGCCAAGCUUAUCGGACACUG
RNA 2: GAGCUCAAGUAGGCACAUCAGCAAGGCGACCAGAGACUC
RNA 3: GAGCUCAUGCGUGGAGACAACGAAGCUGAUGUGCCUACU
RNA 4: GAGCUCACAGUGUCCGAUAAGCAACGUUGUCUCCACGCA
- binding result (P22 N peptide): binds

B2: 4m3 nanostar with streptavidin aptamer (structured_RNA)
RNA 1: GAUGCGGCCGCCGACCAGAAUCAUGCAAGUGCGUAAGAUAGUCGCGGGUCGGCGGCCGCAUCGCGCAUCCACGGCGUGUCGCAAGACGCCGACGCGUCG
RNA 2: GCGCAGUCGGGAUAUACCGGAAGCGACACGCCGUGGA
RNA 3: GCGCAAGUCCACAGUGGCGCAACCGGUAUAUCCCGAC
RNA 4: GCGCACGACGCGUCGGCGUCAAGCGCCACUGUGGACU
- binding result [1]: binds
